The data set in a line: yeast display, Sf9 membrane polyspecificity reagent, FACS + sequencing; frameworks hold sequencing errors. In short, it runs like this: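 Sorting gates, low and high (top ~1%), were placed on anti-HA fluorescence to track expression and on streptavidin fluorescence to track reagent binding. A clone's polyreactivity label is taken from the gate it came out of. The reagent was 10% biotinylated, detergent-solubilized Sf9 membrane, applied for 1 hour at 4 °C to galactose-induced yeast display cells.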
Regarding “QVQLVESGGGLVQAGGSLRLRCAASGRIIFRNAMVWYRQAHGKERELVAAITRGGGSTYYADSVKGRFTISRDNAKNTVYLQMNSLKPEDTAVYYCAAGACYSLYSAYDYWGQGTQVTVSS”, the “polyreactivity (PSR sort gate)” value is on record as “low polyreactivity”. Turning to “QVQLVESGGGLVQAGGSLRLRCAASGRIQPGNAMGWYRQATGKERELVAAISSGGRTNYADSVKGRFTISRDIAKITVYLQMNSLKPEDTAVYYCAKRTVWWSIWHYYPPTYNYWGQGTQVTVSS”, the “polyreactivity (PSR sort gate)” value is reported as “high polyreactivity”. Consider “QVQLVESGGGLVQAGGSLRLRCAASGRTFPSYTMGWYRQAPGKERELVAAITWTGGSTYYADSVKGRFTISRDNAKNTVYLQMNSLKPEDTAVYYCADYDYWGQGTQVTVSS”, for which the “polyreactivity (PSR sort gate)” value is “low polyreactivity”. For “QVQLVESGGGLVQAGGSLRLRCAASGRTFRVYAMGWYRQAPGKERELVATITSSGGSTYYADSVKGRFTISRDNAKNTVYLQMNSLKPEDTAVYYCNVSVYNNYDSSYYYWGQGTQVTVSS” the value was “low polyreactivity”. In the case of “QVQLVESGGGLVQAGGSLRLRCAASGRTFSAYAMGWYRQAPGKERELVAAISRRGGSTYYADSVKWRFTISRDNAKNTVYFQMNSLKPSDTAVYYCAADVYKQYGFYYWGQVTQVTVSS”, the “polyreactivity (PSR sort gate)” value was “high polyreactivity”.

For the sequence “QVQLVESGGGLVQAGGSLRLRCAASGRTFSSYDKAWYRPAPGKERELVAAITKSGGSTYYADSVKGRFTLSRDKAKNTVYLQMNSLKPDDTAVYYCGYQYYYWGQGTQVTVSS”, the “polyreactivity (PSR sort gate)” value is reported as “high polyreactivity”. For “QVQLVESGGGLVQAGGSLRLRCAASGRTFYKNTMGWYRQAPGKERELVATISQRGGATYYADSVKGRFTISRDNAKNTVYLQMTSLKPEDTAVYYCNARKYTQSIHYDYWGQGTQVTVSS” the value was “high polyreactivity”; for “QVQLVESGGGLVQAGGSLRLRCAASGRTFYVYAMGWYRQAPGKERELVATNNTGGSTYYADSVKGRFTISRDNAKNTVYLQMNSLKPEDTAVYYCAARYNPYYIRFGFDKSFYYWGQGTQVTVSS”, “low polyreactivity”; for “QVQLVESGGGLVQAGGSLRLRCAASGRTLWLYTMGWYRQAPGKERELVARIRSGGSTYYADSVKGRFTISRDNAKNTVYLQMNSLKPEDTAVYYCAAYPYWIHYENYYWGQGTQVTVSS”, “high polyreactivity”. For “QVQLVESGGGLVQAGGSLRLRCAASGRTNAYYNMGRYRQAPGKERELVAAISKSGGSTYYADSVKGRFTISRDNAKNTVYLQMNSLKPEDTAVYYCAKRRSGNVRKYDYWGQGTQVTVSS” the value was “high polyreactivity”; for “QVQLVESGGGLVQAGGSLRLRCAASGSIFGGNAMGWYRQAPGKEREMVATITDRGSSTYYADSVKGRFTISRDNAKNTGYLQMNSLKPEDTAVYYCATAFPDVPEHDYWGQGTQVTVSS”, “low polyreactivity”. For “QVQLVESGGGLVQAGGSLRLRCAASGSIFKYYAMGWYRQAPGTERELVAAITWSGTRTYYADSVKGRFTISRDNAKNTVYVQMNSLKPEDTAVYYCNAPRYLYSAGRFNYWGQGTQVTVSS” the value was “high polyreactivity”; for “QVQLVESGGGLVQAGGSLRLRCAASGSIFSNNAMGWYRPAPGKERELVAAITRSGGNTYYADSVKGRFTISRDNAKNTVYLQMNSLKPEDTAVYYCNAVHLRKMYYWGQGTQVTVSS”, “high polyreactivity”; for “QVQLVESGGGLVQAGGSLRLRCAASGSIFVVNAMGWYRPAPGKERELVAAISWSDTTTYYADSVKARFTISRDNAKNTVYLQMNSLKPEDTAVYYCAAGFVIKYDYWGQGTQVTVSS”, “low polyreactivity”.

With “QVQLVESGGGLVQAGGSLRLRCAASGSIFYRNAMGWYRQAPGKERELVASITSGGRTNYADSLKGRFTISRDNAKNTVYLQMNSLKPEDTAVYYCAVQYHAASDHSYWGQGTQVTVSS”, the “polyreactivity (PSR sort gate)” value is on record as “low polyreactivity”. Consider “QVQLVESGGGLVQAGGSLRLRCAASGSIIGIYAMGWYRQAPGKERELVAAISWSGGSTYYADSVKGRFTISRDNAKNTVYLQMISLKPVDTAVYYCAARGHYQYYWGQGTQVTVSS”, for which the “polyreactivity (PSR sort gate)” value is on record as “low polyreactivity”. Turning to “QVQLVESGGGLVQAGGSLRLRCAASGSIIVPNAMGWYRQAPGKERELVAAISGRGGSTYYADSEKGRFTISRDNAKNTVSLQMKSLKPEDTAVYYCAAQDTYHSYGLYSWGQGTQVTVSS”, the “polyreactivity (PSR sort gate)” value was “low polyreactivity”. As for “QVQLVESGGGLVQAGGSLRLRCAASGSSFTGYAMGLYRQAPGKEREFVAAICWTGVSTYYADSVKGSFTISRDNAKNTVYLQMNSLKPEDTAVYYCAVDYVLRDRDLFYIIMEYWGQGTQVTVSS”, the “polyreactivity (PSR sort gate)” value is “low polyreactivity”.

For the sequence “QVQLVESGGGLVQAGGSLRLRCAASGSTFLYYSMGWYREAPGKECELVAAISSTDDSTYADSVKGRFTISRDNAKNTVYLQLNSLKPEDTAVYYCAADVQTLITLGQFDYWGQGTQVTVSS”, the “polyreactivity (PSR sort gate)” value was “low polyreactivity”.

Regarding “QVQLVESGGGLVQAGGSLRLRCAASGSTFTYYAMGWYRQAPGKERELVAVSNKSGGRTNYADSVKGRFTISRDNAKNTVYLQMNSLKPEDTAVYYCNKVTRREGSYGYPSRYDYWGQGTQVTVSS”, the “polyreactivity (PSR sort gate)” value is given as “high polyreactivity”. In the case of “QVQLVESGGGLVQAGGSLRLRCAASGSTFYGYAMGRYRQAPGTERELVALISSSSGRTYYADSVKGRFTISRDNAKNTLYLQMNSLKPEDTAVYDCAKYVFGKFEGVRYSFDYWGQGTQVTVSS”, the “polyreactivity (PSR sort gate)” value was “low polyreactivity”. On to “QVQLVESGGGLVQAGGSLRLRCAASGSTFYHNAMGWYRQAPGKERELVAAISTRGTSTYYADSVKGRFTISRDKAKNTVYLQMNSLKPEDTAVYYCNAVYKLRARYDYWGQGTQVTVSS”, for which the “polyreactivity (PSR sort gate)” value was “high polyreactivity”. On to “QVQLVESGGGLVQAGGSLRLRCAASGSTFYLNAQGWYRQATGKEREFVAAITVSGGSTYYADSVKARFTISRDNAKNTVYLKMNSLKPEDTAVYYCARELLSPTYQRWYYYWGQGTQVTVSS”, for which the “polyreactivity (PSR sort gate)” value is listed as “low polyreactivity”. For “QVQLVESGGGLVQAGGSLRLRCAASGSTIVQYDMGWYRQAPGKERELVAAISRTGSTYYADSVKGRFTISRDNAKNTVYLQINSLKPEDTAVYYCNAEFWRGTYRFGYWGQGTQVTVSS” the value was “low polyreactivity”; for “QVQLVESGGGLVQAGGSLRLRCAASGYTFRGNAMAWYSQAPGKERDLVAGISQTGGNTYYADSVKGRFTISRDNAKNTVYLQMNSLKPEDTAVYYCATTRRPYVRGYPHYYWGQGTEVTVSS”, “high polyreactivity”. In the case of “QVQLVESGGGLVQAGGSLRLRCASSGGIFVPYAMGWYRQAPGKERELVAGITSGGSTNYADSVKGRFSISRDNAKNTVYLQMNRLKPEDTAVYYCAARRRPGGRYKSRVWYDYWGLGTQVTVSS”, the “polyreactivity (PSR sort gate)” value was “high polyreactivity”. For “QVQLVESGGGLVQAGGSLRLRGAASGSIFVYYAMGWYRPAPGKERELVASISESDGSTSYADSVKGRFTISRDNAKNTVYLQMNSLKPEDTAVYYCAADPYFYWYSPSFDYWGQGTQVTVSS”, the “polyreactivity (PSR sort gate)” value was “low polyreactivity”. “QVQLVESGGGLVQAGGSLRLRSAASGGTIARYAMGWYRQATGKERELVAAITKSRDLTYYADSVKGRFTISRDSAKNTVYLQMNSLKPEDTAVYYCARPPSTGYQGGYDYWGQGTQVTVSS”: the “polyreactivity (PSR sort gate)” value is reported as “high polyreactivity”. Take “QVQLVESGGGLVQAGGSLRLSCAAAGIIFISYDMGWYRPAPGKDRELVARINWDGGSTYYADSVKGRFTISRDKAKHTFYLQTNTLKPEDTAVSYCAAGFVGTNYPLQGFSYEYWGPGTQVTVSS”: the “polyreactivity (PSR sort gate)” value is recorded as “low polyreactivity”. Consider “QVQLVESGGGLVQAGGSLRLSCAAAGITFKWNAMGWYRQAPGKERELVAVISSDGRTYYADSVKGRFTSSRDNAKNTVYLQMNSLKPEDTAVYYCARSHSYYPAGPYYYWGQGTQVTVSS”, for which the “polyreactivity (PSR sort gate)” value is recorded as “low polyreactivity”. For “QVQLVESGGGLVQAGGSLRLSCAAAGITLYRYVMGWYRQAPGKERELVADISGRGTSTYYADSEKGRFTISRDNAKNTVYLQMNSLKPEDTAVYYCNAEYTKTGALVIPYTYYYAEDYWGQGTQVTVSS”, the “polyreactivity (PSR sort gate)” value was “low polyreactivity”.

With “QVQLVESGGGLVQAGGSLRLSCAAAGLIFSAYAMGWYRQAPGKEREVVAAISRSGGITYYADSVKGRFTISRDNAKNTVYLQMISLKPEDTAVYYCNARWYDPTLKFGYWGQGTQVTVSS”, the “polyreactivity (PSR sort gate)” value is on record as “high polyreactivity”. For the sequence “QVQLVESGGGLVQAGGSLRLSCAAAGSIFGDYVMGWYRQAPGKERELVPANTSATSTYYADSVKGRFTISRDNAKNTVYLQMNSLKPEDTAVYYCNADATYPLWPNIWYDYDYWGQGTQVTVSS”, the “polyreactivity (PSR sort gate)” value is reported as “low polyreactivity”. As to “QVQLVESGGGLVQAGGSLRLSCAAAGSIFGSYAMGWSRQAPGKERELVPAINSGGATIYSDSVKGRFTISRDNAKNTVYLQMNSLKPEDTAVYYCNAPGRRFNRYGGDYWGQGTQVTVSS”, the “polyreactivity (PSR sort gate)” value is listed as “high polyreactivity”.

With “QVQLVESGGGLVQAGGSLRLSCAAAGSIFVWYVMGWYRQAHGKEMELVAAITWSAARTYYADSVKGRFTISRDNAKNTVYLLMNSLKPEDTAVYYCAADHVSYQPSSRIFDYWGQGTQVTVSS”, the “polyreactivity (PSR sort gate)” value is reported as “low polyreactivity”. As to “QVQLVESGGGLVQAGGSLRLSCAAAGSTFLRNALGWSRPAPGKKVSWVATISYDGDSTYYADSVKGRFTISRDNAKNTVYLQMNSLKPEDTAVYYCAASYSLTFWDKDDYWGQGTQVTVSS”, the “polyreactivity (PSR sort gate)” value is “low polyreactivity”. For “QVQLVESGGGLVQAGGSLRLSCAAAGSTFRYYAMGWYRHAPGKDRELVAAITSGGNTYNADSVKGRFTISRDNAKNTVYLLMNSLKPEDTAVYYCAAVGYLKYDNWGQGTQVTVSS” the value was “low polyreactivity”; for “QVQLVESGGGLVQAGGSLRLSCAAAGTTFSHNTMGWYRQAPGKERELVAAITSGGTTYYADSVKGRFTISRDNAKNTVYLQMMSLKPEDTAVYYCAALRPRGGYYYWGQGTQVTVSS”, “high polyreactivity”; for “QVQLVESGGGLVQAGGSLRLSCAACGLTFGGYVMGWYRQAPGKVRELVAAISGSGGRTYYADSVKGRFTISRDNAKNTVYLQMNSLKPEDTAVYYCARPSRGPPRGYYWGKGTQVTVSS”, “high polyreactivity”. As for “QVQLVESGGGLVQAGGSLRLSCAACGNIFGPYAMGWYRQAPGKERELVAAISFTGVSTYYADSVKGRFTISRDNAKNTVYLQMNSLKPEDTAVYYCSYYRSSTYYYWGQGTQVTVSS”, the “polyreactivity (PSR sort gate)” value is reported as “high polyreactivity”. With “QVQLVESGGGLVQAGGSLRLSCAACGNTFYWNAMGLYRQAPGKERELVAAISTTGVSTYYADSVKGRFTISRDNAKNTVYLQMNSLKPEDTAVYYCAAEIIGYHTIYDYWGQGTQVTVSS”, the “polyreactivity (PSR sort gate)” value was “low polyreactivity”.

For the origin of these results see the nanobody polyreactivity screen of Harvey et al. (2022).
